# From PMC10140725 (Scientific Reports, 2023)
# B1: anti-influenza head-binding antibody C05 fragment antigen binding (Fab) (Fab, V domains shown)
# VH: EVQLQESGGGLVQPGESLRLSCVGSGSSFGESTLSYYAVSWVRQAPGKGLEWLSIINAGGGDIDYADSVEGRFTISRDNSKETLYLQMTNLRVEDTGVYYCAKHMSMQQVVSAGWERADLVGDAFDVWGQGTMVTVSS
# VL: DIQLTQSPSSLSASVGDRVTLTCQASQDIRKFLNWYQQKPGKGPKLLIYDASNLQRGVPSRFSGGGSGTDFTLIISSLQPEDVGTYYCQQYDGLPFTFGGGTKVVIK
# notes: also called C05 Fab; C05 antibody; not shown: His6, C-terminal, kept
# Experiments:
# [1] = target: hemagglutinin (HA) of H1N1 influenza A strain A/Netherlands/002P1/1951, mature HA1/HA2 trimer (Influenza A virus H1N1, strain A/Netherlands/002P1/1951); experiment: crystal structure
# [2] = target: hemagglutinin (HA) of H1N1 influenza A strain A/Denver/57/1957, mature HA1/HA2 (Influenza A virus H1N1, strain A/Denver/57/1957); experiment: crystal structure
# [3] = target: hemagglutinin (HA) of H1N1 influenza A strain A/Hickox/JY2/1940, mature HA1/HA2 trimer (Influenza A virus H1N1, strain A/Hickox/JY2/1940) (UniProt Q0HD60); experiment: crystal structure
# [4] = target: hemagglutinin (HA) of H1N1 influenza A strain A/Fort Monmouth/1/1947, mature HA1/HA2 trimer (Influenza A virus H1N1, strain A/Fort Monmouth/1/1947); experiment: crystal structure
# [5] = target: hemagglutinin (HA) of H1N1 influenza A strain A/Melbourne/1/1946, mature HA1/HA2 trimer (Influenza A virus H1N1, strain A/Melbourne/1/1946); experiment: crystal structure
# [6] = target: hemagglutinin (HA) of H1N1 influenza A strain A/Iowa/1943 (Influenza A virus H1N1, A/Iowa/1943 …, UniProt A4GCK8, strain); experiment: SEC; details: both partners purified
molecule,measurement,setting,value
"hemagglutinin (HA) of H1N1 influenza A strain A/Netherlands/002P1/1951, mature HA1/HA2 trimer (natural protein)",stoichiometry N,[1],3
"hemagglutinin (HA) of H1N1 influenza A strain A/Denver/57/1957, mature HA1/HA2 (natural protein)",stoichiometry N,[2],3
"hemagglutinin (HA) of H1N1 influenza A strain A/Hickox/JY2/1940, mature HA1/HA2 trimer (from UniProt Q0HD60) (natural protein)",stoichiometry N,[3],3
"hemagglutinin (HA) of H1N1 influenza A strain A/Fort Monmouth/1/1947, mature HA1/HA2 trimer (natural protein)",stoichiometry N,[4],3
"hemagglutinin (HA) of H1N1 influenza A strain A/Melbourne/1/1946, mature HA1/HA2 trimer (natural protein)",stoichiometry N,[5],3
B1,binding result,[6],binds
